Laboratory results as given in paper PMC10143992, “Interkingdom Signaling of the Insect Pathogen Photorhabdus luminescens with Plants Via the LuxR solo SdiA” (Microorganisms, 2023).
Blank lines part the entries; values can stand above or below the molecule they belong to.

Legend:
[1] = tested on: T1, SdiA (LuxR solo, 6His-SdiA) (Photorhabdus luminescens DJC), ORF:60ed44fe; test: SPR; details: SPR Biacore T200, SA chip, HBS-EP+ (10 mM HEPES pH 7.4, 150 mM NaCl, 3 mM EDTA, 0.005% Tween-20), SdiA 1.5625-200 nM, 30 uL/min, 1:1 fit; temperature not …
T1 sequence: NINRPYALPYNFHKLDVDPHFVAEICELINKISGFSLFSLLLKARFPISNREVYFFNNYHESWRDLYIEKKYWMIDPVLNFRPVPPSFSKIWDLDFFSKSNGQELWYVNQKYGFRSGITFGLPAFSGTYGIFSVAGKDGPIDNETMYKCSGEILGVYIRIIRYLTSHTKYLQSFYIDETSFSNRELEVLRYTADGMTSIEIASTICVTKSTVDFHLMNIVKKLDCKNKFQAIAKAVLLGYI

[2] = tested on: SdiA (LuxR solo, 6His-SdiA) (Photorhabdus luminescens DJC); test: SPR; details: SPR Biacore T200, SA chip, HBS-EP+ (10 mM HEPES pH 7.4, 150 mM NaCl, 3 mM EDTA, 0.005% Tween-20), SdiA 1.5625-200 nM, 30 uL/min, 1:1 fit, temperature not …
SdiA (6His-SdiA) = molecular target: T2, SdiA (6His-SdiA) (Photorhabdus laumondii, UniProt Q7N9K5); test: nanoDSF thermal shift (intrinsic Trp fluorescence […] nm); format: binding; details: 10 nM ligand; 0.3 mg/mL SdiA; 1.5 °C/min; versus solvent control
T2 construct: gene plu0320
T2 sequence (Q7N9K5 entry or part of it): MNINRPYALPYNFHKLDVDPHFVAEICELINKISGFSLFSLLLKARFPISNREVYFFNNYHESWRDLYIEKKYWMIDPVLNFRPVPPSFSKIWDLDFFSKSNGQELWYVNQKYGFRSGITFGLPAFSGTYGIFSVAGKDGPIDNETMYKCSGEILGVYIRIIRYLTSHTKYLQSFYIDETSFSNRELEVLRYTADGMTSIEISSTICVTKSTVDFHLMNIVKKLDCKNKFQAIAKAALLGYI

Molecule: GTCATTATTCGCTGTTCACTCATCTTTTAATGGCACAATAAGCCCTGACTTTTTACTTTAATTACCCGCTTTAGATCGAGAGGGCTATGTTAGGGTGGCAGTCTAAAAATATGCCGTATATTACTTTGGGTTAATATGGCATTGAATGGCGTAGGTTATAGGGTGGTTTAACACGAGGTTTTT (double strand) [PfliE promoter fragment]
- binding [1]: no binding

Molecule: PaidA promoter fragment
- Kd ([2]; 3.3% (v/v) plant root exudate (PRE), ka 8.2e4 /M/s, kd 1.1e-3 /s): 13.3 nM
- Kd ([2]; no ligand, ka 3.9e5 /M/s, kd printed 1.7 x 103 /s (1.7e-3 from Kd)): 4.4 nM

- DTM (SdiA (6His-SdiA)): −3.9 °C
Molecule: CCCC(=O)N[C@H]1CCOC1=O [C4-AHL]

- DTM (SdiA (6His-SdiA)): +1.6 °C
Molecule: CCCCCCCCCCCC(=O)N[C@H]1CCOC1=O [C12-AHL]

Molecule: GACACCTCTTTACATATTTAAACTATTTATTGGGAATCGAAAGGTTATTTTGCTTACTCATTATTATTCTAATAACTTTCTTTTTATATAATTAACTATTAAAGTTGAAACAGCTACTGGGATAAATCATAGTTTATATGGGAAAATTACTCATATATTTATTAGGTATTGCTTCATATAG (double strand) [PaidA promoter fragment]
- Kd [1]: 4.4 nM

Molecule: PsdiA promoter fragment
- Kd ([2]; 3.3% (v/v) plant root exudate (PRE), ka 1.8e5 /M/s, kd 2.0e-2 /s): 109 nM
- Kd ([2]; no ligand, ka 1.1e5 /M/s, kd 3.1e-3 /s): 27.4 nM
